{
  "source": "patent US7314747B1",
  "about": "“SMRT co-repressors, transcriptional co-repressors that interact with nuclear hormone receptors” (The Salk Institute for Biological Studies, priority 1995, dated 2008)",
  "molecules": {"B1": {"name": "m-SMRTβ (amino acids 1 to 813): construct containing the entire amino terminus of m-SMRTβ (protein, UniProt Q9WU42 1-813, looked up, fragment)", "chain": "MSGSTQPVAQTWRAAEPRYPPHGISYPVQIARSHTDVGLLEYQHHPRDYTSHLSPGSIIQPQRRRPSLLSEFQPGSERSQELHLRPESRTFLPELGKPDIEFTESKRPRLELLPDTLLRPSPLLATGQPSGSEDLTKDRSLAGKLEPVSPPSPPHADPELELAPSRLSKEELIQNMDRVDREITMVEQQISKLKKKQQQLEEEAAKPPEPEKPVSPPPIESKHRSLVQIIYDENRKKAEAAHRILEGLGPQVELPLYNQPSDTRQYHENIKINQAMRKKLILYFKRRNHARKQWEQRFCQRYDQLMEAWEKKVERIENNPRRRAKESKVREYYEKQFPEIRKQRELQERMQSRVGQRGSGLSMSAARSEHEVSEIIDGLSEQENLEKQMRQLAVIPPMLYDADQQRIKFINMNGLMDDPMKVYKDRQVTNMWSEQERDTFREKFMQHPKNFGLIASFLERKTVAECVLYYYLTKKNENYKSLVRRSYRRRGKSQQQQQQQQQQQQQQMARSSQEEKEEKEKEKEADKEEEKQDAENEKEELSKEKTDDTSGEDNDEKEAVASKGRKTANSQGRRKGRITRSMANEANHEETATPQQSSELASMEMNESSRWTEEEMETAKKGLLEHGRNWSAIARMVGSKTVSQCKNFYFNYKKRQNLDEILQQHKLKMEKERNARRKKKKTPAAASEETAFPPAAEDEEMEASGASANEEELAEEAEASQASGNEVPRVGECSGPAAVNNSSDTESVPSPRSEATKDTGPKPTGTEALPAATQPPVPPPEEPAVAPAEPSPVPDASGPPSPEPSPSPAAPPA", "modifications": "SMRTbeta"}, "B2": {"name": "v-erbA (naturally occurring oncogene, oncogenic TR variant) (receptor)", "chain": "REEQVTSEQAKFWLGLGGGRVSPPGPECIEKPATERRIDKGEEMGETTVQRDAKMAPEKMATPKTVGTSCYQCGTATGCNCVTASAPPPPYVGSGLYPSLAGAGEQGQGGDTPRGAEQPRAEPGHAGQAPGPALTDWARIREELASTGPPVVAMPVVIKTEGPAWTPLEPEDTRWLDGKHKRKSSQCLVKSSMSGYIPSCLDKDEQCVVCGDKATGYHYRCITCEGCKSFFRRTIQKNLHPTYSCTYDGCCVIDKITRNQCQLCRFKKCISVGMAMDLVLDDSKRVAKRKLIEENRERRRKEEMIKSLQHRPSPSAEEWELIHVVTEAHRSTNAQGSHWKQRRKFLLEDIGQSPMASMLDGDKVDLEAFSEFTKIITPAITRVVDFAKNLPMFSELPCEDQIILLKGCCMEIMSLRAAVRYDPESETLTLSGEMAVKREQLKNGGLGVVSDAIFDLGKSLSAFNLDDTEVALLQAVLLMSSDRTGLICVDKIEKCQESYLLAFEHYINYRKHNIPHFWSKLLMKVADLRMIGAYHASRFLHMKVECPTELSPQEV"}, "B3": {"name": "TR160 (rTRα Pro 160->Arg mutant, full length) (receptor, rat (printed as rTRα), UniProt P63059 1-492, looked up)", "chain": "MEQKPSKVECGSDPEENSARSPDGKRKRKNGQCPLKSSMSGYIPSYLDKDEQCVVCGDKATGYHYRCITCEGCKGFFRRTIQKNLHPTYSCKYDSCCVIDKITRNQCQLCRFKKCIAVGMAMDLVLDDSKRVAKRKLIEQNRERRRKEEMIRSLQQRPERTPEEWDLIHVATEAHRSTNAQGSHWKQRRKFLPDDIGQSPIVSMPDGDKVDLEAFSEFTKIITPAITRVVDFAKKLPMFSELPCEDQIILLKGCCMEIMSLRAAVRYDPESDTLTLSGEMAVKREQLKNGGLGVVSDAIFELGKSLSAFNLDDTEVALLQAVLLMSTDRSGLLCVDKIEKSQEAYLLAFEHYVNHRKHNIPHFWPKLLMKVTDLRMIGACHASRFLHMKVECPTELFPPLFLEVFEDQEV", "notes": "mature; 35S-labelled probe; also called rTRα R160 mutant; TR160 mutant"}, "B4": {"name": "Gal4-c-SMRT (aa 981 to C terminus) (other)", "chain": "MKLLSSIEQACDICRLKKLKCSKEKPKCAKCLKNNWECRYSPKTKRSPLTRAHLTEVESRLERLEQLFLLIFPREDLDMILKMDSLQDIKALLTGLFVQDNVNKDAVTDRLASVETDMPLTLRQHRISATSSSEESSNKGQRQLTVSAPHHASPDPPAPPASASDPHREKTQSKPFSIQELELRSLGYHGSSYSPEGVEPVSPVSSPSLTHDKGLPKHLEELDKSHLEGELRPKQPGPVKLGGEAAHLPHLRPLPESQPSSSPLLQTAPGVKGHQRVVTLAQHISEVITQDYTRHHPQQLSAPLPAPLYSFPGASCPVLDLRRPPSDLYLPPPDHGAPARGSPHSEGGKRSPEPNKTSVLGGGEDGIEPVSPPEGMTEPGHSRSAVYPLLYRDGEQTEPSRMGSKSPGNTSQPPAFFSKLTESNSAMVKSKKQEINKKLNTHNRNEPEYNISQPGTEIFNMPAITGTGLMTYRSQAVQEHASTNMGLEAIIRKALMGGGKAKVSGRPSSRKAKSPAPGLASGDRPPSVSSVHSEGDCNRRTPLTNRVWEDRPSSAGSTPFPYNPLIMRLQAGVMASPPPPGLPAGSGPLAGPHHAWDEEPKPLLCSQYETLSDSE", "notes": "also called vertebrate corepressor"}},
  "key": {"[1]": {"biological_target": "T1, E52-RAR interaction (Homo sapiens, UniProt P10276)", "T1 construct": "hRAR (amino acids 186-462); expressed in transfected cells; host or cells: Y190 yeast cells", "T1 sequence (P10276 186-462)": "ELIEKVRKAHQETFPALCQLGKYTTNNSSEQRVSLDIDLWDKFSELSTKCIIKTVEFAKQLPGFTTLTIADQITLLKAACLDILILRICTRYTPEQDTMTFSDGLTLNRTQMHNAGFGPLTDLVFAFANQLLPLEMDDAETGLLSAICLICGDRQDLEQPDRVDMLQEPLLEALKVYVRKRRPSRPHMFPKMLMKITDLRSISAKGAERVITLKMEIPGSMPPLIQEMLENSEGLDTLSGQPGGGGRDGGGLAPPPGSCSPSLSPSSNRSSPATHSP", "assay": "Yeast two-hybrid assay, E52-RAR interaction", "type": "cell-based", "settings": "3 μM ligand", "experimental": "Transformants were selected onto DO-Leu-Trp-His plates containing 40 mM 3-aminotriazole (Sigma) for 3-4 days. Surviving yeast colonies were picked as primary positives and restreaked on selection plates to isolate single clones. Activation domain plasmids were rescued from the selected positive transformants for further analysis. Each clone was evaluated by testing its potential interaction with several other nuclear receptors using the yeast two-hybrid assays. […] Quantitative liquid assay of β-galactosidase was performed on positive clones 16 hr after treating the yeast cells with no ligand, or with 3 μM ligand."}, "[2]": {"biological_target": "GST-SMRT (GST fusion of the C-SMRT encoded by the yeast two hybrid clone) (human) (UniProt Q9Y618)", "assay": "far-western: 35S-labelled receptor on immobilized GST-SMRT, phosphoimager"}, "[3]": {"test_system": "GAL4-TK-luciferase reporter in CV-1 cells", "assay": "GAL4-SMRT amino terminus fusions cotransfected with GAL4-TK-luciferase reporter in CV-1 cells", "type": "cell-based, Monkey", "settings": "luciferase normalized to β-galactosidase", "experimental": "Experiments were performed using the plasmids pCMX-GAL4 DBD and pMH100-TK-luc (Nagy et al., (1997), supra). Standard PCR amplifications were used to generate GAL4 fusion constructs. All constructs were verified by double-stranded sequencing to confirm identity and reading frame.\nMonkey CV-1 cells were grown in DMEM supplemented with 10% resin-charcoal stripped fetal bovine serum (FBS), 50 units/ml of penicillin G, and 50 μg/ml of streptomycin sulfate at 37° C. in 7% CO2. V-1 cells (60-70% confluence, 48-well plate) were cotransfected with 16 ng of pCMX-GAL4, 100 ng of pMH100-TK-luc, and 100 ng of pCMX-β galactosidase in 200 μl of DMEM containing 10% super-stripped fetal calf serum (FCS) by the N-(1-(2,3-dioleoyloxy)propyl)-N,N,N-trimethylammonium methylsulfate (DOTAP)-mediated procedure (Nagy et al., (1997), supra). The amount of DNA in each transfection was kept constant by addition of pCMX. After 24 hr, the medium was replaced; cells were harvested and assayed for luciferase activity 36 to 48 hr after transfection. […]\nBased on the high degree of identity between regions of the SMRT amino terminus and the corresponding N-CoR region, the ability of regions in the SMRT amino terminus to act in transcriptional repression was examined. […] Repression was determined relative to the basal activity of the reporter in the presence of the GAL-DBD alone."}, "[4]": {"biological_target": "T2, GST-SMRT (GST fusion of the C-SMRT encoded by the yeast two hybrid clone) (human, UniProt Q9Y618 2000-2514)", "T2 construct": "also called immobilized GST-SMRT; not shown: glutathione S-transferase (GST) tag", "assay": "far-western: 35S-labelled receptor on GST-SMRT, phosphoimager"}, "[5]": {"biological_target": "T3, EcR A483T (Drosophila, UniProt P34021 1-878)", "T3 construct": "CMV vector, cotransfected with VP16-USP; also called repression-defective EcR allele", "T3 sequence (looked up)": "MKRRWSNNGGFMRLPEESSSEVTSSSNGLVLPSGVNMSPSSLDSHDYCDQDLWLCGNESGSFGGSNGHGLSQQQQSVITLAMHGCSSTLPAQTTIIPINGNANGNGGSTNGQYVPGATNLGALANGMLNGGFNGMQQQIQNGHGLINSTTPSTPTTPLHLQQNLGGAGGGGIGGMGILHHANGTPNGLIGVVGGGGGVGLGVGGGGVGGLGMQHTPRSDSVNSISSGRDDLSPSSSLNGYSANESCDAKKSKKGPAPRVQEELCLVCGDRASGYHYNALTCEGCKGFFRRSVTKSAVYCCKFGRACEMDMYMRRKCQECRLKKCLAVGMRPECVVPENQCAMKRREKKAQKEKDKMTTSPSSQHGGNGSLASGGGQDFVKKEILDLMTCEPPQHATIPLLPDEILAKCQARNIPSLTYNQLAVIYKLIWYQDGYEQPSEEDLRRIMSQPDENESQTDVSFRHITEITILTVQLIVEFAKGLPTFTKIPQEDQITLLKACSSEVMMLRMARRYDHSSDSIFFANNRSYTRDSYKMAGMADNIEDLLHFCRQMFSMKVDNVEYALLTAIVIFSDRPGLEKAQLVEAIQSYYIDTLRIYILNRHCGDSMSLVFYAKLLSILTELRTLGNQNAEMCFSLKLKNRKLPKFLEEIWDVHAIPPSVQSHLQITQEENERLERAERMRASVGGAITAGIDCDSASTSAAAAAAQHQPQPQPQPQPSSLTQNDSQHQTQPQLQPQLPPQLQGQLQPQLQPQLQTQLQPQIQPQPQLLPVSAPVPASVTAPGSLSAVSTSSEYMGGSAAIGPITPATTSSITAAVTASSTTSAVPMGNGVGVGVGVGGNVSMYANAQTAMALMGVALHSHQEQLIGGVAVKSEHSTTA", "assay": "mammalian two-hybrid in CV-1 cells (with VP16-USP)"}},
  "data": [
    {"molecule": "CC1=C(/C=C/C(C)=C/C=C/C(C)=C/C(=O)O)C(C)(C)CCC1", "note": "[atRA, all-trans retinoic acid]", "values": [
      {"measurement": "dissociation of the interaction between E52 and RAR by ligand", "setting": "[1]", "result": "can be dissociated"}
    ]},
    {"molecule": "RAR403 (carboxy-terminal deletion mutant of RAR) (from UniProt P10276 1-403) (receptor)", "values": [
      {"measurement": "fold interaction relative to wild type RAR (phosphoimager)", "setting": "[2]", "result": 4, "unit": "fold"}
    ]},
    {"molecule": "B1", "values": [
      {"measurement": "repression relative to basal reporter activity with GAL-DBD alone", "setting": "[3]", "result": "about 2.6 fold"}
    ]},
    {"molecule": "B2", "values": [
      {"measurement": "fold interaction relative to hTRβ (phosphoimager)", "setting": "[4]", "result": 18, "unit": "fold"}
    ]},
    {"molecule": "B3", "values": [
      {"measurement": "fold lower signal relative to rTRα (phosphoimager)", "setting": "[4]", "result": 10, "unit": "fold lower"}
    ]},
    {"molecule": "B4", "values": [
      {"measurement": "binding result", "setting": "[5]", "result": "no binding"}
    ]}
  ]
}
